Literature values as cited in article PMC8602370.

Molecular target: PARP1 (Homo sapiens) (UniProt P09874)
Sequence (P09874 2-1014): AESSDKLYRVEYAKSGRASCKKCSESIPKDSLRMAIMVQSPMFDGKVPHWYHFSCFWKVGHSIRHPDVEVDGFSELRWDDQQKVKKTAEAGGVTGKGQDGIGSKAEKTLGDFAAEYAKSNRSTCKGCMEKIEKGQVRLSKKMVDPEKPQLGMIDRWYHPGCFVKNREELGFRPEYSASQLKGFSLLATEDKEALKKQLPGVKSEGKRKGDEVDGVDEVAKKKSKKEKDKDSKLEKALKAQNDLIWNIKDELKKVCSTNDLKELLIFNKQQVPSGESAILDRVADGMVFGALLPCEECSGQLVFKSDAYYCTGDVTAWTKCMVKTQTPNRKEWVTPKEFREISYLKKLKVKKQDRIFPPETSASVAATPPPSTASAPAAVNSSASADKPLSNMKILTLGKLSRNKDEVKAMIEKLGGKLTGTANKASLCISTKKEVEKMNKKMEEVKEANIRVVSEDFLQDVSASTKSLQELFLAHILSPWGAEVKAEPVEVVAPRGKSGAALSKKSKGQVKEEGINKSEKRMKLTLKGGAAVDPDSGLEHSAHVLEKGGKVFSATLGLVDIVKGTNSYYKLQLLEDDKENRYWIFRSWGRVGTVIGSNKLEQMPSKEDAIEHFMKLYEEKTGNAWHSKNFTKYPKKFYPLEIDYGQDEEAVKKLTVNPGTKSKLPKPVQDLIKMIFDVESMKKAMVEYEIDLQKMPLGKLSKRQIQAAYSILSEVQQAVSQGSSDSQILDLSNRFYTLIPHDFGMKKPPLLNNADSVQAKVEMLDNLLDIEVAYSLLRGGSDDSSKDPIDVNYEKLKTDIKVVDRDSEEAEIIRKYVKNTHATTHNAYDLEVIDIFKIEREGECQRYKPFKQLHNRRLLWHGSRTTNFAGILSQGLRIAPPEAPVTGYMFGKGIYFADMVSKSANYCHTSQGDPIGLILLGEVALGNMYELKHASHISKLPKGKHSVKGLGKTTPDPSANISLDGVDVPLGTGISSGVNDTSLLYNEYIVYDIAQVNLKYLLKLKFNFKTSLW

HPF1, sequence (Q9NWY4 whole entry): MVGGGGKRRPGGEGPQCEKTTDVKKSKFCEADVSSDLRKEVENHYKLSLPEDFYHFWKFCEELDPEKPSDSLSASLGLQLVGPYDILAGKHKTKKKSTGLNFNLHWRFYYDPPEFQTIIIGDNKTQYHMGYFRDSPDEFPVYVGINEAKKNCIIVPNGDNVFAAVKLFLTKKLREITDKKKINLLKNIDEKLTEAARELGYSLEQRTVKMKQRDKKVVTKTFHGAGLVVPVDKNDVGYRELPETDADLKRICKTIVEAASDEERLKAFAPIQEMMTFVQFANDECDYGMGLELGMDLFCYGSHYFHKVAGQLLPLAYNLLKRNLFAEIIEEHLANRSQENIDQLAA

HPF1 (from UniProt Q9NWY4)
Kd: 3.5 µM
